# B1: ttUMPK (UMP kinase) (Thermus thermophilus HB8) (protein)
# chain: MKYKRVLLKLSGEFLTRNGFGIEPEATQALAREIKAAYDTGVQLAIVIGAGNLWRGARQGVGMDRATADYIGMLATIMNALALQDALESLGVPTRVQTALTITQVAEPYIRRRALRHLEKERIVIFGGGTGNPFFSTDTAAALRALEVGAEVVLMAKNKVDGVYSDDPRKNPEAVRFDELTYLEVLNRGLQVMDTTAITLCMEAGLPIVVFDIFKPGALVGIIQGEKVGTLIH
# notes: recombinant in E. coli C41(DE3)pRARE2, pET-11a, no tag mentioned; hexamer (prokaryotic UMP kinases)
# How the values were obtained:
# [1] = substrate: Nc1ncnc2c1ncn2[C@@H]1O[C@H](COP(=O)(O)OP(=O)(O)OP(=O)(O)O)[C@@H](O)[C@H]1O; assay: pyruvate kinase/lactate dehydrogenase coupled assay, A340; assay type: biochemical, Thermus thermophilus; details: excess UMP (methods print 1 mM CMP), 25 °C, pH 7.5, 5 mM MgCl2
# purified protein = substrate: O=c1ccn([C@@H]2O[C@H](COP(=O)(O)O)[C@@H](O)[C@H]2O)c(=O)[nH]1; assay: purified protein; details: 1 mM ATP, 25 °C, pH 7.5, 5 mM MgCl2, 25.0 °C
protein,measurement,setting,value
B1,Km,[1],214 ± 7 µM
same,kcat,[1],14 ± 0 s⁻¹
same,Km,purified protein,74 ± 10 µM
same,kcat,purified protein,21 ± 1 s⁻¹

# From publication PMC12667214, “Phosphomimetic mutations near active sites of proteins in Thermus thermophilus suggest a widespread regulatory mechanism” (FEBS Open Bio, 2025)
